Literature values as cited in PMC3817581.

Tests used:
Details in all cases: not stated in this article
Asp27 = Asp27 (UniProt position 156, PLCGSDNKTYG)
Asp7 = Asp7 (UniProt position 136, AAVSVDCSEYP)
Glu10 = Glu10 (UniProt position 139, SVDCSEYPKPA)
Glu19 = Glu19 (UniProt position 148, PACTLEYRPLC)
Glu43 = Glu43 (UniProt position 172, CNAVVESNGTL)

Q: For “Turkey ovomucoid third domain (OMTKY3) (Meleagris gallopavo)”, which pKa (Asp27) is on record?
A: The pKa was 2.2.

Q: What about the pKa (Asp7) of the same substance?
A: The pKa was 2.5.

Q: What about the pKa (Glu10) of the same substance?
A: The pKa was 4.1.

Q: And the pKa (Glu19)?
A: Its pKa is 3.2.

Q: What about the pKa (Glu43) of the same substance?
A: The pKa was 4.8.
